Biological target: Lck(h) (lymphocyte-specific protein tyrosine kinase) (human) (UniProt P06239)
Assay: cell-based or functional assay

Lck(h) (lymphocyte-specific protein tyrosine kinase) (human), sequence (P06239 whole entry): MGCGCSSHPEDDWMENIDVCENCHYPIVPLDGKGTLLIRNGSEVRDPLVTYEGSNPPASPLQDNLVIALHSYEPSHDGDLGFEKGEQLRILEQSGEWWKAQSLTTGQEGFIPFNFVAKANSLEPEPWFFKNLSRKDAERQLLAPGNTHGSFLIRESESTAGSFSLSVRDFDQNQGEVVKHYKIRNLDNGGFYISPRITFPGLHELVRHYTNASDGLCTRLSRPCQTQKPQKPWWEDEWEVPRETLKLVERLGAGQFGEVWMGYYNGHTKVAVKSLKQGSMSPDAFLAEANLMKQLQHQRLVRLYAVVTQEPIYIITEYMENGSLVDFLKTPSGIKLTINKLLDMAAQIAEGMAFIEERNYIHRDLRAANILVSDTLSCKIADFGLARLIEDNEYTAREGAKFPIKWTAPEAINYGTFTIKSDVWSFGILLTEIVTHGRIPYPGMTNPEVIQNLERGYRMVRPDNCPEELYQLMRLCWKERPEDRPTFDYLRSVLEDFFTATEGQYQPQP

Lck activity, percentage relative to control, in vitro kinase assay, peptide 1 µM (% increase in Lck activity): 490
Substance: rskaknplyrrrrrrrrr (IKD14800) (peptide)

— US20260103488A1
